Measured values published in patent US20150174203A1 (ICAHN SCHOOL OF MEDICINE AT MOUNT SINAI, published 2015).

T1: human Angptl-7 with FLAG tag at the C-terminus (human, UniProt O43827 27-346)
T1 construct: not shown: FLAG tag at the C-terminus
T1 sequence: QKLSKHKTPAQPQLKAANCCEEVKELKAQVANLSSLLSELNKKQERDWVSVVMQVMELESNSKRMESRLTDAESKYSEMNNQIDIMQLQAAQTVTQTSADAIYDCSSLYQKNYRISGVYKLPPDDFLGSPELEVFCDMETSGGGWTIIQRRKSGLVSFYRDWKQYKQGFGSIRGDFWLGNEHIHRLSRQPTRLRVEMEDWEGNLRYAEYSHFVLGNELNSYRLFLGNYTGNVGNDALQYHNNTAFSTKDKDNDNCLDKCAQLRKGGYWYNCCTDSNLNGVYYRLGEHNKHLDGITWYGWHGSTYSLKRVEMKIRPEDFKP

T2: paired immunoglobulin-like receptor B (PirB) (mouse, UniProt P97484 25-841)
T2 construct: whole, on cells
T2 sequence (looked up): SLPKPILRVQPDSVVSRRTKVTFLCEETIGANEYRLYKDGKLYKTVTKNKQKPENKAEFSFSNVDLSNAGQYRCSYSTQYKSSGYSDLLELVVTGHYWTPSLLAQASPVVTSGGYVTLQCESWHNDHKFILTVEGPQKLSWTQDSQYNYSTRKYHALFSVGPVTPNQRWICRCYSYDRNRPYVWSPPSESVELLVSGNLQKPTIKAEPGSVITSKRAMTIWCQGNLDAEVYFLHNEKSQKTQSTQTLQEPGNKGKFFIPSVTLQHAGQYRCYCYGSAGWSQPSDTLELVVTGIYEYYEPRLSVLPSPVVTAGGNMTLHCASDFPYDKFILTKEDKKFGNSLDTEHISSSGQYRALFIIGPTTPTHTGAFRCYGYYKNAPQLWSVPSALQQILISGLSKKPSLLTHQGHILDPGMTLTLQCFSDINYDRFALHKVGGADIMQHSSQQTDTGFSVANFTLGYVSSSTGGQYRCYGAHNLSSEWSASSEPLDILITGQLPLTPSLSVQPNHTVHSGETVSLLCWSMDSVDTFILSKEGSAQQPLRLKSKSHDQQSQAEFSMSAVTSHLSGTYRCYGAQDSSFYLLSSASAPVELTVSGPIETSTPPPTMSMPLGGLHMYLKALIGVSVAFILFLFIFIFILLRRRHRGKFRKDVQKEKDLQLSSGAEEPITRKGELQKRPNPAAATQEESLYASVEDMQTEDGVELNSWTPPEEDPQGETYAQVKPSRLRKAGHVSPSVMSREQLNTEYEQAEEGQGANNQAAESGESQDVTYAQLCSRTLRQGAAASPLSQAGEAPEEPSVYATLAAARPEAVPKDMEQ

B1: mouse LAIR1 (receptor, UniProt Q8BG84 22-263, looked up)
chain: QEGSLPDITIFPNSSLMISQGTFVTVVCSYSDKHDLYNMVRLEKDGSTFMEKSTEPYKTEDEFEIGPVNETITGHYSCIYSKGITWSERSKTLELKVIKENVIQTPAPGPTSDTSWLKTYSIYIFTVVSVIFLLCLSALLFCFLRHRQKKQGLPNNKRQQQRPEERLNLATNGLEMTPDIVADDRLPEDRWTETWTPVAGDLQEVTYIQLDHHSLTQRAVGAVTSQSTDMAESSTYAAIIRH
notes: whole, on cells
B2: GST-Angptl-5-FLAG, in house, bacterially expressed (ligand)
chain: NCVHHSTDSSVVNIVEDGSNAKDESKSNDTVCKEDCEESCDVKTKITREEKHFMCRNLQNSIVSYTRSTKKLLRNMMDEQQASLDYLSNQVNELMNRVLLLTTEVFRKQLDPFPHRPVQSHGLDCTDIKDTIGSVTKTPSGLYIIHPEGSSYPFEVMCDMDYRGGGWTVIQKRIDGIIDFQRLWCDYLDGFGDLLGEFWLGLKKIFYIVNQKNTSFMLYVALESEDDTLAYASYDNFWLEDETRFFKMHLGRYSGNAGDAFRGLKKEDNQNAMPFSTSDVDNDGCRPACLVNGQSVKSCSHLHNKTGWWFNECGLANLNGIHHFSGKLLATGIQWGTWTKNNSPVKIKSVSMKIRRMYNPYFK
notes: also called GST-A5 (in house, bacterial); GST-A5-FLAG; not shown: glutathione S-transferase (GST) tag at the N-terminus (pGEX vector); FLAG tag at the C-terminus
B3: GST-Angptl-5 (purified, purchased from Abnova) (ligand)
chain: B2 chain
notes: Bought fusion protein; Used radio-iodinated in the liquid-phase assay; also called GST-A5 (Abnova); ^125I-GST-Angptl-5; not shown: glutathione S-transferase (GST) tag at the N-terminus
B4: GST-Angptl-3 (ligand)
chain: SRIDQDNSSFDSLSPEPKSRFAMLDDVKILANGLLQLGHGLKDFVHKTKGQINDIFQKLNIFDQSFYDLSLQTSEIKEEEKELRRTTYKLQVKNEEVKNMSLELNSKLESLLEEKILLQQKVKYLEEQLTNLIQNQPETPEHPEVTSLKTFVEKQDNSIKDLLQTVEDQYKQLNQQHSQIKEIENQLRRTSIQEPTEISLSSKPRAPRTTPFLQLNEIRNVKHDGIPAECTTIYNRGEHTSGMYAIRPSNSQVFHVYCDVISGSPWTLIQHRIDGSQNFNETWENYKYGFGRLDGEFWLGLEKIYSIVKQSNYVLRIELEDWKDNKHYIEYSFYLGNHETNYTLHLVAITGNVPNAIPENKDLVFSTWDHKAKGHFNCPEGYSGGWWWHDECGENNLNGKYNKPRAKSKPERRRGLSWKSQNGRLYSIKSTKMLIHPTDSESFE
notes: also called GST-Angptls-FLAG (Angptl-3); not shown: glutathione S-transferase (GST) tag (pGEX vector); FLAG tag (GST-Angptls-FLAG)
B5: human Angptl-3 with FLAG tag at the C-terminus (ligand)
chain: DQDNSSFDSLSPEPKSRFAMLDDVKILANGLLQLGHGLKDFVHKTKGQINDIFQKLNIFDQSFYDLSLQTSEIKEEEKELRRTTYKLQVKNEEVKNMSLELNSKLESLLEEKILLQQKVKYLEEQLTNLIQNQPETPEHPEVTSLKTFVEKQDNSIKDLLQTVEDQYKQLNQQHSQIKEIENQLRRTSIQEPTEISLSSKPRAPRTTPFLQLNEIRNVKHDGIPAECTTIYNRGEHTSGMYAIRPSNSQVFHVYCDVISGSPWTLIQHRIDGSQNFNETWENYKYGFGRLDGEFWLGLEKIYSIVKQSNYVLRIELEDWKDNKHYIEYSFYLGNHETNYTLHLVAITGNVPNAIPENKDLVFSTWDHKAKGHFNCPEGYSGGWWWHDECGENNLNGKYNKPRAKSKPERRRGLSWKSQNGRLYSIKSTKMLIHPTDSESFE
notes: not shown: FLAG tag at the C-terminus
B6: human Angptl-2 with FLAG tag at the C-terminus, mammalian-expressed (ligand, not shown: small tags and cut ends)
chain: QEDGFEGTEEGSPREFIYLNRYKRAGESQDKCTYTFIVPQQRVTGAICVNSKEPEVLLENRVHKQELELLNNELLKQKRQIETLQQLVEVDGGIVSEVKLLRKESRNMNSRVTQLYMQLLHEIIRKRDNALELSQLENRILNQTADMLQLASKYKDLEHKYQHLATLAHNQSEIIAQLEEHCQRVPSARPVPQPPPAAPPRVYQPPTYNRIINQISTNEIQSDQNLKVLPPPLPTMPTLTSLPSSTDKPSGPWRDCLQALEDGHDTSSIYLVKPENTNRLMQVWCDQRHDPGGWTVIQRRLDGSVNFFRNWETYKQGFGNIDGEYWLGLENIYWLTNQGNYKLLVTMEDWSGRKVFAEYASFRLEPESEYYKLRLGRYHGNAGDSFTWHNGKQFTTLDRDHDVYTGNCAHYQKGGWWYNACAHSNLNGVWYRGGHYRSRYQDGVYWAEFRGGSYSLKKVVMMIRPNPNTFH
notes: also called Angptl-2-FLAG; A2-Flag (mammalian)
B7: LILRA2 (receptor, UniProt Q8N149 24-483, looked up)
chain: GHLPKPTLWAEPGSVIIQGSPVTLRCQGSLQAEEYHLYRENKSASWVRRIQEPGKNGQFPIPSITWEHAGRYHCQYYSHNHSSEYSDPLELVVTGAYSKPTLSALPSPVVTSGGNVTLQCVSQVAFDGFILCKEGEDEHPQRLNSHSHARGWSWAIFSVGPVSPSRRWSYRCYAYDSNSPYVWSLPSDLLELLVPGVSKKPSLSVQPGPMVAPGESLTLQCVSDVGYDRFVLYKEGERDFLQRPGWQPQAGLSQANFTLGPVSPSHGGQYRCYSAHNLSSEWSAPSDPLDILITGQFYDRPSLSVQPVPTVAPGKNVTLLCQSRGQFHTFLLTKEGAGHPPLHLRSEHQAQQNQAEFRMGPVTSAHVGTYRCYSSLSSNPYLLSLPSDPLELVVSEAAETLSPSQNKTDSTTTSLGQHPQDYTVENLIRMGVAGLVLVVLGILLFEAQHSQRSLQDAAGR
notes: whole, on cells

Tests used:
[1] = molecular target: T1, human Angptl-7 with FLAG tag at the …; assay: flow cytometry, 293T cells transfected with mouse LAIR1, anti-FLAG-APC against anti-LAIR1-PE; left gate of the same panel 56; Control panel 14 (left) and 15 (right)
Procedure: (§1) Plasmids and proteins. […] Angptl-2-FLAG was purified using M2 resin. Purified GST-Angptl-5 was purchased from Abnova. Bacterially-expressed Flag-Angptl-2 and Angptl-2-Flag were constructed in pET-26b(+) vector, and GST-Angptls-FLAG in pGEX vector, and expressed and purified from bacteria. […] Anti-LILRB2-PE was used as indicated. The cells were analyzed using either a FACSCalibur or FACSAria instrument (Becton Dickinson).

[2] = molecular target: T2, paired immunoglobulin-like receptor B …; assay: flow cytometry, PirB-transfected 293T cells, GST-Angptl-5-FLAG according to the legend, Angptl binding against PirB staining; left gate of the same panel 46; Control panel 123 (left) and 183 (right)
Procedure: as §1

[3] = molecular target: T2, paired immunoglobulin-like receptor B …; assay: flow cytometry on PirB-transfected 293T cells
Procedure: as §1

LILRA1 = molecular target: T3, LILRA1 (UniProt O75019 17-489, limits assumed); assay: flow cytometry on transfected 293T cells
T3 construct: whole, on cells
T3 sequence (O75019 17-489 limits assumed): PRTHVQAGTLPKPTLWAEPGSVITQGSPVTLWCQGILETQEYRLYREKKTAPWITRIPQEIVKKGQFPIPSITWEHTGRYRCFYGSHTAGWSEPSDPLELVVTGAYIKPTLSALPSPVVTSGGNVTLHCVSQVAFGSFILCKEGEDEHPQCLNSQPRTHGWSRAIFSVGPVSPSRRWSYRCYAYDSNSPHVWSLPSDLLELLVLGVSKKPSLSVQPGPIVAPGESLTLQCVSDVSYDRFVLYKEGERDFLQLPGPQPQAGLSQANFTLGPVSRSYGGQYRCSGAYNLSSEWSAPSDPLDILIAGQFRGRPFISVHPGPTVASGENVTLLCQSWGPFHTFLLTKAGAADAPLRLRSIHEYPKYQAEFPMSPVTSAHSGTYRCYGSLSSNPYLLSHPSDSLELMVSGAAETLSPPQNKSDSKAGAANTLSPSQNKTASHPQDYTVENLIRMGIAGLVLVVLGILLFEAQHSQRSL
Procedure: as §1

LILRA2 = molecular target: B7; assay: flow cytometry on transfected 293T cells
Procedure: as §1

LILRB1 = molecular target: T4, LILRB1 (human, UniProt Q8NHL6 24-650); assay: flow cytometry on transfected 293T cells
T4 construct: also called leukocyte immunoglobulin-like receptor B1
T4 sequence (Q8NHL6 other isoform, or with tags, fused parts or gaps limits assumed): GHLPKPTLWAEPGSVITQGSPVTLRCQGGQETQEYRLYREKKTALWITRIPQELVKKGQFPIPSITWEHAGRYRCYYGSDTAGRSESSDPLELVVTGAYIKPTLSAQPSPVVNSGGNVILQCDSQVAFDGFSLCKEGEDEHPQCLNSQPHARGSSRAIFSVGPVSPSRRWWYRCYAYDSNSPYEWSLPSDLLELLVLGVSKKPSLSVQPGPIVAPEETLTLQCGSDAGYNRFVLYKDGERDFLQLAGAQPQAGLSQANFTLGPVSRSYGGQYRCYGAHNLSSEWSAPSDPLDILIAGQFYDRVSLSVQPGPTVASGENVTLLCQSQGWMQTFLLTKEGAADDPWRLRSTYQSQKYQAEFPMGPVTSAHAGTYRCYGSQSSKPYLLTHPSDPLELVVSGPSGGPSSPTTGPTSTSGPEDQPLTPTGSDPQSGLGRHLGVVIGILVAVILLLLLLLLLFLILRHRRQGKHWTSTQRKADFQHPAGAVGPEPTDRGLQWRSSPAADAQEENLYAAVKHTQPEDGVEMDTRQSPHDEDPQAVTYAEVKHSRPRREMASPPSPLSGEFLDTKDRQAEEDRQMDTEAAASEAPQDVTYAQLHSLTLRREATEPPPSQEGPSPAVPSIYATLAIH
Procedure: as §1

LILRA4 = molecular target: T5, LILRA4 (UniProt P59901 24-499, limits assumed); assay: flow cytometry on transfected 293T cells
T5 construct: whole, on cells
T5 sequence (P59901 24-499 limits assumed): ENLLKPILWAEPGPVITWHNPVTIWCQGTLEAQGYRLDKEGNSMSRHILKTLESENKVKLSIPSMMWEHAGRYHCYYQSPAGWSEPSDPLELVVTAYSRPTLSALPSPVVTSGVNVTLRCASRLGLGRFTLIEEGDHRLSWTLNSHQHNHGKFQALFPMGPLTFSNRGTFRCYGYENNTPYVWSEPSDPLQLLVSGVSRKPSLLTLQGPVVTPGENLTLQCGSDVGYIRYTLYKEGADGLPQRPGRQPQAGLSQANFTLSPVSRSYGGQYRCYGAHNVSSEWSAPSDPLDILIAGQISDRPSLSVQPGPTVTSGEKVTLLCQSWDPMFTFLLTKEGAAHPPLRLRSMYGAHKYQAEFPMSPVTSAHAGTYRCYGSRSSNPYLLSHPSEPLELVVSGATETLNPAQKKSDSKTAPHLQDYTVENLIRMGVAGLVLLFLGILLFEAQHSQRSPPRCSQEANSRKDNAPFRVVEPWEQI
Procedure: as §1

LILRB3 = molecular target: T6, LILRB3 (human, UniProt O75022 24-631); assay: flow cytometry on transfected 293T cells
T6 construct: also called leukocyte immunoglobulin-like receptor B3
T6 sequence (O75022 other isoform, or with tags, fused parts or gaps limits assumed): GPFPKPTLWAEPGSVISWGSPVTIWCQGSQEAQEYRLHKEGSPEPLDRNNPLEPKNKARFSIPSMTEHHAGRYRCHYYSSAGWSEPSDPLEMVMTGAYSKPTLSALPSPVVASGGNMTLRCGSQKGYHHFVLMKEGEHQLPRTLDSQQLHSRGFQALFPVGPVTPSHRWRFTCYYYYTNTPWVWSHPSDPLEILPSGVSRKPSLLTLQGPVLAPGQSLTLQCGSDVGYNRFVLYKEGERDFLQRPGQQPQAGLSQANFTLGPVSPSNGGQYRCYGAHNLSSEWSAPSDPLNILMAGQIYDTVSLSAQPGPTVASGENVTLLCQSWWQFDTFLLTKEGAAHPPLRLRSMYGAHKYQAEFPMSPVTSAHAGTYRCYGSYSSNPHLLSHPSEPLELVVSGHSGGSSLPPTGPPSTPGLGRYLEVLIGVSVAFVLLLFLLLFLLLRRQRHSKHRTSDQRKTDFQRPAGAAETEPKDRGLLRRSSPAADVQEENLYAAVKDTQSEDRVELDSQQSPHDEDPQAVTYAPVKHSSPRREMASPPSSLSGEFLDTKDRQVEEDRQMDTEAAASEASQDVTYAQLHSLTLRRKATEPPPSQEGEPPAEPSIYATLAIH
Procedure: as §1

LILRB5 = molecular target: T7, LILRB5 (human, UniProt O75023 24-590); assay: flow cytometry on transfected 293T cells
T7 construct: also called leukocyte immunoglobulin-like receptor B5
T7 sequence (O75023 other isoform, or with tags, fused parts or gaps limits assumed): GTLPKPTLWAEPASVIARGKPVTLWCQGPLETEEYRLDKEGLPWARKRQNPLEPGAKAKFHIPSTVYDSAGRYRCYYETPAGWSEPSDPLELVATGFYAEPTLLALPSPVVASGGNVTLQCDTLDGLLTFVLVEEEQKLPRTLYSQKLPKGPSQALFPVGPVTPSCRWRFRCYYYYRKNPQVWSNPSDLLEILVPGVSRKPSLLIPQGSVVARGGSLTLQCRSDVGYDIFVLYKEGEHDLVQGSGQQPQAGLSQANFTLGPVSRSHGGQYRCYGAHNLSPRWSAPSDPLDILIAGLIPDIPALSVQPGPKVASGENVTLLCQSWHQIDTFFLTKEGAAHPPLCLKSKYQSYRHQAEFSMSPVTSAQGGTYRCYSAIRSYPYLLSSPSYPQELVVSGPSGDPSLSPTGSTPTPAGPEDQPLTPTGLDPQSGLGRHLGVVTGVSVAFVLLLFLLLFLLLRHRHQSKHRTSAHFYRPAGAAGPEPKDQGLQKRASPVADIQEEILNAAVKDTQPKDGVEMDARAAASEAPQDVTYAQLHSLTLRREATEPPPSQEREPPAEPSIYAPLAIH
Procedure: as §1

human LILRB2 = molecular target: T8, human LILRB2 (human, UniProt Q8N423 22-597); assay: flow cytometry on human cord blood LILRB2+ cells
T8 construct: also called leukocyte immunoglobulin-like receptor B2
T8 sequence (Q8N423 22-597 D161E/M235V limits assumed): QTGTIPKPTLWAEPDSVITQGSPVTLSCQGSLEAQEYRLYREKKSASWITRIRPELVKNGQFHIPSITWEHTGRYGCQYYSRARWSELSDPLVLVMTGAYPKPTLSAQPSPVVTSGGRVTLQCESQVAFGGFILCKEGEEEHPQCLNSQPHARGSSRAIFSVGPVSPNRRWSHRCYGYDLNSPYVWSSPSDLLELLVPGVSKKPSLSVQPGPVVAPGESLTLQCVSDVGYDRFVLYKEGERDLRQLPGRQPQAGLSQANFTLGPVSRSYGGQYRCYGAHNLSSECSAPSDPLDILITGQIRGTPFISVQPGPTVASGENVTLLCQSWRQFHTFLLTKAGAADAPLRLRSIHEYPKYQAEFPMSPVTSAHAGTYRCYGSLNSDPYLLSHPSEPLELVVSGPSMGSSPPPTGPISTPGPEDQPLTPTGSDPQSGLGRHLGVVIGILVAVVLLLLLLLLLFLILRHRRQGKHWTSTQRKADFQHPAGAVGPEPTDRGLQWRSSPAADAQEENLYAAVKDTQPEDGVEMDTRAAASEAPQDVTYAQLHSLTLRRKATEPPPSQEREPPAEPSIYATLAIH
Procedure: as §1

[4] = molecular target: B6; assay: flow cytometry on transfected 293T cells
Procedure: as §1

B1
binding result [1]: binds

B2
binding result [2]: binds

B3
binding result [3]: binds
binding result (LILRA1): no binding
binding result (LILRA2): no binding
binding result (LILRB1): no binding
binding result (LILRA4): no binding
binding result (LILRB3): binds
binding result (LILRB5): binds

B4
binding result (human LILRB2): binds

B5
binding result [3]: binds

B6
binding result (LILRA1): no binding
binding result (LILRB1): no binding
binding result (LILRA4): no binding

B7
binding result [4]: no binding
